The values below come from FireProtDB (doi:10.1074/jbc.m112.408906).

First the molecules themselves.
B1: Myocilin, Q99972 (parent)
chain: MRFFCARCCSFGPEMPAVQLLLLACLVWDVGARTAQLRKANDQSGRCQYTFSVASPNESSCPEQSQAMSVIHNLQRDSSTQRLDLEATKARLSSLESLLHQLTLDQAARPQETQEGLQRELGTLRRERDQLETQTRELETAYSNLLRDKSVLEEEKKRLRQENENLARRLESSSQEVARLRRGQCPQTRDTARAVPPGSREVSTWNLDTLAFQELKSELTEVPASRILKESPSGYLRSGEGDTGCGELVWVGEPLTLRTAETITGKYGVWMRDPKPTYPYTQETTWRIDTVGTDVRQVFEYDLISQFMQGYPSKVHILPRPLESTGAVVYSGSLYFQGAESRTVIRYELNTETVKAEKEIPGAGYHGQFPYSWGGYTDIDLAVDEAGLWVIYSTDEAKGAIVLSKLNPENLELEQTWETNIRKQSVANAFIICGTLYTVSSYTSADATVNFAYDTGTGISKTLTIPFKNRYKYSSMIDYNPLEKKLFAWDNLNMVTYDIKLSKM

In the data set the parent is B1. The note with it: Homo sapiens, pH 6, Thermal, CD, Sodium acetate 10mM, reversible: no, structure 4WXQ, whole UniProt chain shown.

As usually defined, the Tm is the temperature at which the thermal transition is half complete. In the case of MRFFCARCCSFGPEMPAVQLLLLACLVWDVGARTAQLRKANDQSGRCQYTFSVASPNESSCPEQSQAMSVIHNLQRDSSTQRLDLEATKARLSSLESLLHQLTLDQAARPQETQEGLQRELGTLRRERDQLETQTRELETAYSNLLRDKSVLEEEKKRLRQENENLARRLESSSQEVARLRRGQCPQTRDTARAVPPGSREVSTWNLDTLAFQELKSELTEVPASRILKESPSGYLRSGEGDTGCGELVWVGEPLTLRTAETITGKYGVWMRAPKPTYPYTQETTWRIDTVGTDVRQVFEYDLISQFMQGYPSKVHILPRPLESTGAVVYSGSLYFQGAESRTVIRYELNTETVKAEKEIPGAGYHGQFPYSWGGYTDIDLAVDEAGLWVIYSTDEAKGAIVLSKLNPENLELEQTWETNIRKQSVANAFIICGTLYTVSSYTSADATVNFAYDTGTGISKTLTIPFKNRYKYSSMIDYNPLEKKLFAWDNLNMVTYDIKLSKM [D273A], the Tm is, setting by setting: (CaCl2 1mM) 21.7 °C; (CaCl2 10mM) 21.1 °C. Besides, the “change of melting temperature, mutant - wild type (higher = more stable)” value (“change of melting temperature, mutant” below) (CaCl2 1mM) is -31.3 °C and the “change of melting temperature, mutant” value (CaCl2 10mM) was -38.5 °C.
As for MRFFCARCCSFGPEMPAVQLLLLACLVWDVGARTAQLRKANDQSGRCQYTFSVASPNESSCPEQSQAMSVIHNLQRDSSTQRLDLEATKARLSSLESLLHQLTLDQAARPQETQEGLQRELGTLRRERDQLETQTRELETAYSNLLRDKSVLEEEKKRLRQENENLARRLESSSQEVARLRRGQCPQTRDTARAVPPGSREVSTWNLDTLAFQELKSELTEVPASRILKESPSGYLRSGEGDTGCGELVWVGEPLTLRTAETITGKYGVWMRDPKPTYPYTQETTWRIDTVGTDVRQVFEYDLISQFMQGYPSKVHILPRPLESTGAVVYSGSLYFQGAESRTVIRYELNTETVKAEKEIPGAVYHGQFPYSWGGYTDIDLAVDEAGLWVIYSTDEAKGAIVLSKLNPENLELEQTWETNIRKQSVANAFIICGTLYTVSSYTSADATVNFAYDTGTGISKTLTIPFKNRYKYSSMIDYNPLEKKLFAWDNLNMVTYDIKLSKM [G364V], for the setting “CaCl2 1mM”, the Tm worked out at 45 °C and the “change of melting temperature, mutant” value is -8 °C. Besides, under “CaCl2 10mM”, the Tm worked out at 51.9 °C and the “change of melting temperature, mutant” value was -7.7 °C.
For the variant MRFFCARCCSFGPEMPAVQLLLLACLVWDVGARTAQLRKANDQSGRCQYTFSVASPNESSCPEQSQAMSVIHNLQRDSSTQRLDLEATKARLSSLESLLHQLTLDQAARPQETQEGLQRELGTLRRERDQLETQTRELETAYSNLLRDKSVLEEEKKRLRQENENLARRLESSSQEVARLRRGQCPQTRDTARAVPPGSREVSTWNLDTLAFQELKSELTEVPASRILKESPSGYLRSGEGDTGCGELVWVGEPLTLRTAETITGKYGVWMRDPKPTYPYTQETTWRIDTVGTDVRQVFEYDLISQFMQGYPSKVHILPRPLKSTGAVVYSGSLYFQGAESRTVIRYELNTETVKAEKEIPGAGYHGQFPYSWGGYTDIDLAVDEAGLWVIYSTDEAKGAIVLSKLNPENLELEQTWETNIRKQSVANAFIICGTLYTVSSYTSADATVNFAYDTGTGISKTLTIPFKNRYKYSSMIDYNPLEKKLFAWDNLNMVTYDIKLSKM [E323K], for the setting “CaCl2 1mM”, the Tm amounted to 44 °C and the “change of melting temperature, mutant” value was -9 °C. For the setting “CaCl2 10mM”, the Tm was 50.3 °C and the “change of melting temperature, mutant” value is -9.3 °C.
